Target: T1, 6His-FIP5 (human, UniProt Q9BXF6 1-653)
T1 sequence (looked up): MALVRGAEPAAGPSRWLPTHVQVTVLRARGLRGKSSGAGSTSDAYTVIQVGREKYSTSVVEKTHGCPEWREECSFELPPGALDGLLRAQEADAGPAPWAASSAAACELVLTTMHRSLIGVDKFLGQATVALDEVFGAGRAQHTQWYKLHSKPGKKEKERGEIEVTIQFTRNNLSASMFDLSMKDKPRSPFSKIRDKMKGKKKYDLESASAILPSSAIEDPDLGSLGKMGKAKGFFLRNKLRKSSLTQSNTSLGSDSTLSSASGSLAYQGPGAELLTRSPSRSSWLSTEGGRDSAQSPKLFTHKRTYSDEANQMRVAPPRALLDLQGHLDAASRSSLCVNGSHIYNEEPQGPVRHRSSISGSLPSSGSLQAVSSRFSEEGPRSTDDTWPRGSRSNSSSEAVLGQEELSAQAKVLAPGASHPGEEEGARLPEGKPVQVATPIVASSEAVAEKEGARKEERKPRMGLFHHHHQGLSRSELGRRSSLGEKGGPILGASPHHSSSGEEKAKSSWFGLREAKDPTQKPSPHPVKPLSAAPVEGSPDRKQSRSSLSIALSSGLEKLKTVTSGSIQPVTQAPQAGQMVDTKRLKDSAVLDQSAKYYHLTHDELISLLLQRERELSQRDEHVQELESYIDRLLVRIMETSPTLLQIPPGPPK
Experiment: ITC

- Kd: 1.56 µM
B1: GST-SNX18 (natural protein, human, UniProt Q96RF0 1-628, looked up)
chain: MALRARALYDFRSENPGEISLREHEVLSLCSEQDIEGWLEGVNSRGDRGLFPASYVQVIRAPEPGPAGDGGPGAPARYANVPPGGFEPLPVAPPASFKPPPDAFQALLQPQQAPPPSTFQPPGAGFPYGGGALQPSPQQLYGGYQASQGSDDDWDDEWDDSSTVADEPGALGSGAYPDLDGSSSAGVGAAGRYRLSTRSDLSLGSRGGSVPPQHHPSGPKSSATVSRNLNRFSTFVKSGGEAFVLGEASGFVKDGDKLCVVLGPYGPEWQENPYPFQCTIDDPTKQTKFKGMKSYISYKLVPTHTQVPVHRRYKHFDWLYARLAEKFPVISVPHLPEKQATGRFEEDFISKRRKGLIWWMNHMASHPVLAQCDVFQHFLTCPSSTDEKAWKQGKRKAEKDEMVGANFFLTLSTPPAAALDLQEVESKIDGFKCFTKKMDDSALQLNHTANEFARKQVTGFKKEYQKVGQSFRGLSQAFELDQQAFSVGLNQAIAFTGDAYDAIGELFAEQPRQDLDPVMDLLALYQGHLANFPDIIHVQKGKAWPLEQVIWSVLCRLKGATLTAVPLWVSESYSTGEEASRDVDAWVFSLECKLDCSTGSFLLEYLALGNEYSFSKVQRVPLMTVLSF
